Legend:
[1] = target: T1, Cynomolgus 191P4D12 (on PC3 cells) (cynomolgus monkey, UniProt A0A2K5WES1 32-510); experiment: FACS titration on PC3 cells expressing the cynomolgus ortholog
T1 construct: also called PC3-Cynomolgus-191P4D12; Cyno ortholog
T1 sequence: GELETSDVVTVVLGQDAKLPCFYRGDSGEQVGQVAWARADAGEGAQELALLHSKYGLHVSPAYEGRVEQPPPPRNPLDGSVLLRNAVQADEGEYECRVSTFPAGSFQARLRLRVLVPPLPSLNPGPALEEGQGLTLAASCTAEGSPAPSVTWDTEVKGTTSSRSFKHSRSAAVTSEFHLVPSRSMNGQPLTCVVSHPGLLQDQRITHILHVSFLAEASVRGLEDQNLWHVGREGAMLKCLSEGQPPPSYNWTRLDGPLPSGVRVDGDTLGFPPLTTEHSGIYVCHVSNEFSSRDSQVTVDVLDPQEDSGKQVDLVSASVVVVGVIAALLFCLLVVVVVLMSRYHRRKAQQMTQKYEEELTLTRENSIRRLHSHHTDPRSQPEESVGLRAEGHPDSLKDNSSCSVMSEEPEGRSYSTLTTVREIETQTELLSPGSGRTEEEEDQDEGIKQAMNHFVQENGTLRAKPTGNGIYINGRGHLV

[2] = target: T2, 191P4D12 (aa 1-31, 147-510), C1C2, Rat1(E) expressing line (human, UniProt Q96NY8 1-510); experiment: FACS on Rat1(E) cells expressing the C1C2 construct [Continued]
T2 construct: Deletion construct on the surface of Rat1(E) cells; also called C1C2 domain expressing cells
T2 sequence: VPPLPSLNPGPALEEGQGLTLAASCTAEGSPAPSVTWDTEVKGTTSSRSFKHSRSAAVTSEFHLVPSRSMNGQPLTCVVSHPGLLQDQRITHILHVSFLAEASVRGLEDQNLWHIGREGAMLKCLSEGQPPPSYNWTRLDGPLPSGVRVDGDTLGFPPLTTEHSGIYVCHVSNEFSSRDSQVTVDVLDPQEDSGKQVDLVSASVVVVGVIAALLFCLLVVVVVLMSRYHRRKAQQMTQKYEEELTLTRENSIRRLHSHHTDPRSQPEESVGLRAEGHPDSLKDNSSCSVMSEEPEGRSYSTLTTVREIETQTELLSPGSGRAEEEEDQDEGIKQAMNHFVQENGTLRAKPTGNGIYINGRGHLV

[3] = target: Murine ortholog of 191P4D12, N90S, I75A double mutant (on PC3 cells) (mouse) (UniProt Q8R007); experiment: FACS titration of Ha22-2(2,4)6.1 on PC3 cells expressing mouse 191P4D12 I75A,N90S

B1: Ha22-2(2,4)6.1 MAb (antibody, human IgG1, kappa, V domains shown)
VH: EVQLVESGGGLVQPGGSLRLSCAASGFTFSSYNMNWVRQAPGKGLEWVSYISSSSSTIYYADSVKGRFTISRDNAKNSLSLQMNSLRDEDTAVYYCARAYYYGMDVWGQGTTVTVSS
VL: DIQMTQSPSSVSASVGDRVTITCRASQGISGWLAWYQQKPGKAPKFLIYAASTLQSGVPSRFSGSGSGTDFTLTISSLQPEDFATYYCQQANSFPPTFGGGTKVEIKR
notes: Fully human IgG1 kappa from XenoMouse; Used biotinylated in the Western blot; also called 191P4D12 MAb Ha22-2(2,4)6.1; Ha22-(2,4)6.1 MAb
- EC50 (read off the curve) [1]: ~0.3 nM
- binding result [2]: no binding
- EC50 (read off the curve) [3]: 0.5 nM

Reference: US20260034234A1 (AGENSYS, published 2026)
